Results: patent publication US20220324998A1 (MUSC FOUNDATION FOR RESEARCH DEVELOPMENT, published 2022)

Columns and labels:
NRAS(G12D) = NRAS(G12D) (UniProt P01111 1-189, limits assumed); experiment: co-IP (FLAG IP, Western blot) from HEK cells (FIG. 6)
Excerpt: (§1) R15m clones were expressed as CFP-FLAG fusion proteins in HEK cells along with various HA-tagged mutants of HRAS. CFP and NS1 Monobody were used as controls. CFP-FLAG and CFP-FLAG-tagged Monobodies (Mb) were immunoprecipitated, fractionated on SDSPAGE, and probed for binding to HRAS mutants. Antibodies used in Western blots are shown to the right of each panel.
(§2) R15 or R18 Monobody was expressed as CFP-FLAG fusion proteins in HEK cells along with various HA-tagged mutants of HRAS or KRAS, immunoprecipitated, and probed for binding to RAS mutants (FIGS. 1B and 1C). Additionally, various R15-derivative (R15m #) Monobody clones were expressed as CFP-FLAG fusion proteins in HEK cells along with various HA-tagged mutants of HRAS, immunoprecipitated, and probed for binding to RAS mutants (FIG. 5). R15 and R18 clones bound predominantly to Q61L, D119N, and K16N mutants with little binding to wild type (WT) or G12V mutant. K16N purifies from bacteria in a nucleotide free state. […] R15m10 binds Q61L mutants of all three RAS isoforms in addition to binding to NRAS(G12D) mutant (FIG. 6). Further R15m10 binds common oncogenic RAS mutants (FIG. 7 and FIG. 8).

NRAS(Q61L) = biological target: T1, NRAS(Q61L) (UniProt P01111 1-189, limits assumed); experiment: as above
T1 construct: HA-tagged, expressed in HEK cells
Excerpt: as §1, §2

HRAS(Q61L) = biological target: T2, HRAS(Q61L) (UniProt P01112 1-189, limits assumed); experiment: as above
T2 construct: HA-tagged, expressed in HEK cells; also called Q61L mutant; HA-tagged HRAS Q61L
Excerpt: as §1, §2

HRAS(G12V) = biological target: T3, HRAS(G12V) (UniProt P01112 1-189); experiment: FLAG IP of monobody from HEK cells co-transfected with HA-tagged RAS mutant (FIG. 11D)
T3 construct: also called G12V mutant
Excerpt: FIG. 11A depicts KRAS(Q61L) co-expression with NS1 and R15. FIG. 11B depicts KRAS(G12D) co-expression with NS1 and R15. FIG. 11C depicts KRAS(G13D) co-expression with NS1 and R15. FIG. 11D depicts HRAS(G12V) co-expression with NS1 and R15. FIGS. 11E and 11F depict total expression of proteins with NS1 and R15, respectively, in whole cell lysates (WCL). HEK cells were co-transfected with the indicated Mb and HA-tagged RAS mutant. Monobodies were subsequently immunoprecipitated with FLAG antibodies to purify the associated RAS mutant protein. IPs were washed extensively with buffer containing high Mg2+ and lacking nucleotide. RAS proteins were then eluted from the immune complex with buffer containing low concentrations of SDS and deoxycholate (DOC). Eluted RAS proteins were then recovered and diluted 10-fold with buffer lacking SDS and DOC. Purified RAS proteins were then normalized to equivalent levels and incubated with GST-RAF-RBD to determine the level of active GTP-loaded RAS. As indicated, NS1 purified RAS-GTP as the purified RAS proteins robustly bound GST-RAF RBD both in the absence and presence of added GTPγS. […] However, addition of GTPγS (+GTP) to the R15m10 purified RAS proteins reconstituted binding to the RAF-RBD.
HEK cells were co-transfected with the indicated Mb and HA-tagged RAS mutant. […]

Measured: binding result

B1: FLAG-tagged CFP-R15m10 Monobody (designed binder)
chain: VSSVPTKLEVVAATPTSLLISWDASSSSVSYYRITYGETGGNSPVQEFTVPGYYSTATISGLKPGVDYTITVYAVWQGVWRYVSPISINYRT
notes: also called apo-specific monobody R15m10; not shown: CFP; FLAG tag
binds: all assays above
